Test results published in the nanobody polyreactivity screen of Harvey et al. (2022).

Test: yeast display, Sf9 membrane polyspecificity reagent, FACS + sequencing; frameworks hold sequencing errors
Summary of the method: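 After 36–48 hours of galactose induction, yeast (Saccharomyces cerevisiae BJ5465) displaying a synthetic nanobody library were stained at 4 °C for 1 hour with 10% biotinylated, detergent-solubilized Sf9 membrane reagent. Streptavidin microbeads enriched the stained cells before FACS sorting into low and high (top ~1%) gates on anti-HA and streptavidin fluorescence. Each clone's polyreactivity label reflects its gate of origin.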

| Sequence | polyreactivity (PSR sort gate) |
| --- | --- |
| QVQLVESGGGLVQAGGSLRLSCAASGRIFEPYAMGWYRQAPGKERELVAAITSGGSTDYADSVKGRFTISRDNAKNTVYLQMNSLKPEDTAVYYCAAETVWRLDYWGQGTQVTVSS | low polyreactivity |
| QVQLVESGGGLVQAGGSLRLSCAASGRIFERNAMGGDRQAPGKEREFVAASSWSGGSTHYADSVKGRFTSSRDNAKNTVYVQMNSLKPEDTAVYFCAARRRKAGRPSDRYYYWGQGTQVTVSS | high polyreactivity |
| QVQLVESGGGLVQAGGSLRLSCAASGRIFERYAMGWYRQAPGKERELVAGISISGGGTYYADSVKGRFTISRDNAKNTVYLEMNSLKPEDTAVYYCAATFPREDYGYWGQGTQVTVSS | low polyreactivity |
| QVQLVESGGGLVQAGGSLRLSCAASGRIFERYAMGWYRQAPGKERELVAGISISGGGTYYADSVKGRFTISRDNAKNTVYLQMNSLKPEDTAVYYCAATFPREEYGYWGQGTQVTVSS | low polyreactivity |
| QVQLVESGGGLVQAGGSLRLSCAASGRIFESYAMGWYRQAPGKERELVAAISSGGGTTYYADSVKGRFTISRDNAKNTVYLQMNSLKPEDTAVYYCAAGPWFYYWGQGTQVTVSS | low polyreactivity |
| QVQLVESGGGLVQAGGSLRLSCAASGRIFEWYAMGWYRQAPGKEREFVARITIGGRTYYADSVKGRFTISRDNAKNTVYFQMNSVKREDTAVYYCNAPYAWARPYIVSSTYDYWGQGTQVTVSS | high polyreactivity |
| QVQLVESGGGLVQAGGSLRLSCAASGRIFFHNAMGWYRQARGKERELVAAISYSGGSTYYADSVKGRFTIARDNAKNTVYLQMNSLKPEDTAVYYCNRYGNSYYFPPGPLYNYWGQGTQVTVSS | high polyreactivity |
| QVQLVESGGGLVQAGGSLRLSCAASGRIFFIYAMGWYRQAPGKERELVAAITWRGGRTYYADSVKGRFTISRDNAKNTVYLQMNSLKPEDTAVYYCAADYRDSYLFYYWGQGTQVTVSS | high polyreactivity |
| QVQLVESGGGLVQAGGSLRLSCAASGRIFFIYVMGWYRQAPGKERELVAGITRGGSTNYADSVKGRFTISRDNAKNTVYLQMNSLKPEDTAVYYCAAAVLSYRHAHAGYYYGKGDYWGQGTQVTVSS | high polyreactivity |
| QVQLVESGGGLVQAGGSLRLSCAASGRIFFNAMGWYRQAPGKEREFVAAIRTSGGTTYYADSVKGRFTISRDNAKNTVYLQMNSLKPEDTAVYYCAAWRWYYPVRNRAQYVRGDYWGQGTQVTVSS | high polyreactivity |
| QVQLVESGGGLVQAGGSLRLSCAASGRIFFPNAMGWYRQAPGKERELVAAITSGSSTYYADSVKGRFTISRDNAKNTVYLQMNSLKPEDTAVYYCAARGRRGEAYRSVYYWGQGTQVTVSS | high polyreactivity |
| QVQLVESGGGLVQAGGSLRLSCAASGRIFFRNAMGWYRQAPGKERELVAVINTGGSTNYADSVKGRFTISRDNAKNTVFLQMNSLKPEDTAVYYCAVDRASRRTYNQYGFWGQGTQVTVSS | high polyreactivity |
| QVQLVESGGGLVQAGGSLRLSCAASGRIFFRNVMGWYRQAPGKERELVATITSGGRTYYADSVKGRFTISRDNAKNTVYLQMNSLKPEDTAVYYCAAKRYLHRREYWGQGTQVTVSS | high polyreactivity |
| QVQLVESGGGLVQAGGSLRLSCAASGRIFFTKAMGWYRQAPGKERELVAAISKSGARTYYADSVKGRFTISRDNAKNTVYLQMNSLKPEDTAVYYCAADVSVSGYYYWGQGTQVTVSS | high polyreactivity |
| QVQLVESGGGLVQAGGSLRLSCAASGRIFFTNAMGWYRQAPGKEREFVAGISFSGDGRTYYADSVKGRFTISRDNAKNTVYLQMNSLKPEDTAVYYCAAPHRSRTHELDYWGQGTQVTVSS | low polyreactivity |
| QVQLVESGGGLVQAGGSLRLSCAASGRIFFTNAMGWYRQAPGKERELVATISSSDGSTYYADSVTGRFTISRDNAKNTVYLQMNSLKPEDTAVYYCAARYRSTFYNTYDRVYWGQGTQVTVSS | high polyreactivity |
| QVQLVESGGGLVQAGGSLRLSCAASGRIFFTYAMGWYRQAPGKERELVASITGSGGSTYYADSVKGRFTISRDNAKNTVYLQMNSLKPEDTAVYYCAAALFRRQLYRKFYYWGQGTQVTVSS | low polyreactivity |
| QVQLVESGGGLVQAGGSLRLSCAASGRIFFVNTMGWYRQAPGNERELVATLSWSGGSTYYADSVKGRFTISRDNAKNTVYLQMNSLKPEDTAVYYCAAVGYTTYRRYDYWGQGTQVTVSS | low polyreactivity |
| QVQLVESGGGLVQAGGSLRLSCAASGRIFFWYARGWYRQAPGKEWELVAGITSGGSTNYADSVKGRFTISRDNAKNTVYLQMNSLKPEDTAVYYCAKRSYRTHTYDYWGQGTQVTVSS | low polyreactivity |
| QVQLVESGGGLVQAGGSLRLSCAASGRIFFYNAMGWYRQAPGKERELVATINWSGGSTYYADSVKGRFTISRDYAKNTVYLQMNSLKPEDTAVYYCNALRASTTALWGGYWGQGTQVTVSS | high polyreactivity |
| QVQLVESGGGLVQAGGSLRLSCAASGRIFFYNVMGWYRQAPGKERELVASIRWSGSGTYYADSVKGRFTISRDDAKNTVYLQMNCLKPEETAVYYCAVLGRVGYGVYPVDYWGQGTQVTVSS | high polyreactivity |

| Sequence | polyreactivity (PSR sort gate) |
| --- | --- |
| QVQLVESGGGLVQAGGSLRLSCAASGRIFFYYAMGWYRQAPGTERELVAAISKSGGRTYYADSVKGRFTISRDNAKNTVYLQMNSLKPEDTAVYYCAAYSAHDSDYWGQGTQVTVSS | high polyreactivity |
| QVQLVESGGGLVQAGGSLRLSCAASGRIFGANAMGWYRQAPGKERELVAAIDDGVSTNYADSVKGRFTISRDNAKNTVYLQMNSLKPEDTAVYYCAKRSFVGGRGRDSDYWGQGTQVTVSS | low polyreactivity |
| QVQLVESGGGLVQAGGSLRLSCAASGRIFGANAMGWYRQAPGKERELVAAISGSGGRTYYADSVKGRFTISRDNAKNTVYLQMNSLKPEDTAVYYCAAGRPTYSRYFGFEYWGQGTQVTVSS | high polyreactivity |
| QVQLVESGGGLVQAGGSLRLSCAASGRIFGAYAMGWYRQAPGKERELVAAISSGGSTNYADSVKGRFTISRDNAKNTVYLQMNSLKPEDTAVYYCAAERLYSWYYYKYNSEFYYWGQGTQVTVSS | low polyreactivity |
| QVQLVESGGGLVQAGGSLRLSCAASGRIFGAYAMGWYRQAPGKERELVAAITSRGGNTYYADSVKGRFTISRDNAKNTVYLQMNSLKPEDTAVYYCAARHDKLRQYYVGQSAFDYWGQGTQVTVSS | low polyreactivity |
| QVQLVESGGGLVQAGGSLRLSCAASGRIFGAYTMGWYRQAPGKERELVAVISSRGTDTYYADSVKGRFTISRDNAKNTVYLQMNSLKPEDTAVYYCAKRWWYTTSPRRSGDYWGQGTQVTVSS | high polyreactivity |
| QVQLVESGGGLVQAGGSLRLSCAASGRIFGDYAMGWYRKAPGKERELLAAISWSDGSTYYADSVKGRFTISRDNAKNTVYLQMNSLKPEDTAVYYCAAYGWGYRYVDVVVSDFYYWGQGTQVTVSS | low polyreactivity |
| QVQLVESGGGLVQAGGSLRLSCAASGRIFGDYAMGWYRQAPGKERELVADITWSGGSTYYADSVKGRVTISRDNAKHTVYLQMNSLKPEDTAVYYCNADVWFYYTFDYWGQGTQVTVSS | low polyreactivity |
| QVQLVESGGGLVQAGGSLRLSCAASGRIFGFNAMGWYRQATGKERELVAAISWRGGSTYYADSVKGRFTISRDNAKNTVYLQMNSLKPEDTAVYYCAAGRYLRSGFGEGYYWGQGTQVTVSS | high polyreactivity |
| QVQLVESGGGLVQAGGSLRLSCAASGRIFGFYALGWYRQAPGKEREFVASISVRGASTYADSVKGRFTISRDNAKNTVYLQMYSLKPEDTAVYYCNKAVANDDGLEYWGQGTQVTVSS | high polyreactivity |
| QVQLVESGGGLVQAGGSLRLSCAASGRIFGFYAMGWYRQAPGKERELVAAISSRGGRTYYADSVKGRFTISRDNAKNTVYLQMNSLKPEDTAVYYCAAGDGKYGRDGDYWGQGTQVTVSS | high polyreactivity |
| QVQLVESGGGLVQAGGSLRLSCAASGRIFGFYAMGWYRQAPGKERELVARITLSGGRTYYADSVKGRFTISRDNAKNTVYLQMNSLKPEDTAVYYCAADSIGRLWGYGYWGQGTQVTVSS | high polyreactivity |
| QVQLVESGGGLVQAGGSLRLSCAASGRIFGFYAMGWYRQAPGKERELVAVISNGGGSTYYADSVKGRFTISRDNAKNTVYLQMTSLKPEDTAVYYCAVALKYPRRYYYWGQGTQVTVSS | high polyreactivity |
| QVQLVESGGGLVQAGGSLRLSCAASGRIFGFYARGWYRQAPGKEREFVADITSGGSTNYADSVKGRFTISRDNAKNTVYLQMNSLKPEDTAVYYCNALSYVWYRYPGNWDEDDYWGQGTQVTVSS | low polyreactivity |
| QVQLVESGGGLVQAGGSLRLSCAASGRIFGGYAMGWYRQAPGKERELVAAIDLSGGSTYYADSVKGRFTISRDNAKNTVYLQMNSLKPEDNAVYYCAADAYPVYYYLSTYDPWYDYWGQGTQVTVSS | low polyreactivity |
| QVQLVESGGGLVQAGGSLRLSCAASGRIFGGYAMGWYRQAPGKERELVAAISGSGGRTYYADSVKGRFTISRDNAKNTVYLQMNSLKPEDTAVYYCNKGYVYGHEYWGQGTQVTVSS | high polyreactivity |
| QVQLVESGGGLVQAGGSLRLSCAASGRIFGGYAMGWYRQAPGKERELVAVISRGGSITDYADSVKGRFTISRDNAKNTVYLQMNSLKPEDTAVYYCAARICGGSYWGQGTQVTVSS | high polyreactivity |
| QVQLVESGGGLVQAGGSLRLSCAASGRIFGGYAMGWYRQAPGKEWEVVAAIRDSGRTYYADSVKGRFTISRDNAKNTVYLQMNSLKPEDTAVYYCAADAHSSYSPFRWYDYWGQGTQVTVSS | low polyreactivity |
| QVQLVESGGGLVQAGGSLRLSCAASGRIFGGYTMGWYRQAPGKERELVAAITGSGGRTYYADSVKGRFTISRDNAKNTVYLQMNSLKPEDTAVYYCNTVYRYRYYWGQGTQVTVSS | high polyreactivity |
| QVQLVESGGGLVQAGGSLRLSCAASGRIFGGYVMGWYRQAPGKEREFVAAISGRGTSTSYADSVKGRFTISRDNAKNTVYVQMNSLKPEDTAVYYCAARPKSDYSNGGNYWGQGTQVTVSS | high polyreactivity |
